According to article doi:10.1101/2024.02.14.580290 (bioRxiv, 2024):

Target: rat Gβ1 with Hexa-His-tag (in purified Gαsβ1γ2) (rat, UniProt P54311 2-340)
Assay: cross-linking

B1: bovine Gαs short subunit (in purified Gαsβ1γ2) (natural protein)
chain: MGCLGNSKTEDQRNEEKAQREANKKIEKQLQKDKQVYRATHRLLLLGAGESGKSTIVKQMRILHVNGFNGDGEKATKVQDIKNNLKEAIETIVAAMSNLVPPVELANPENQFRVDYILSVMNVPDFDFPPEFYEHAKALWEDEGVRACYERSNEYQLIDCAQYFLDKIDVIKQDDYVPSDQDLLRCRVLTSGIFETKFQVDKVNFHMFDVGGQRDERRKWIQCFNDVTAIIFVVASSSYNMVIREDNQTNRLQEALNLFKSIWNNRWLRTISVILFLNKQDLLAEKVLAGKSKIEDYFPEFARYTTPEDATPEPGEDPRVTRAKYFIRDEFLRISTASGDGRHYCYPHFTCAVDTENIRRVFNDCRDIIQRMHLRQYELL
binding result: binds
